Data published in US20110118131A1 (published 2011).
Where a chain is given by its changes, count along the chain named. Names may count otherwise.

B1: XPA23 light chain R31T (Fab, V domains shown)
VH: EVQLLESGGGLVQPGGSLRLSCAASGFTFSKYFMFWVRQAPGKGLEWVSVISPSGGMTRYADSVKGRFTISRDNSKNTLYLQMNSLRAEDTAVYYCARVGYGGNSDYWGQGTLVTVSS
VL: DIQMTQSPSSVSASVGDRLTIICRASQDINTWLAWYQQTPGNAPKLLIHSATSLQSGVPSRFSGSGSGTDFTLTINSLQPEDFATYYCQQADSFPLTFGGGTKVEIK
B2: XPA23 light chain S50H (Fab, V domains shown)
VH: B1 VH
VL: B1 VL with T31R, S50H
B3: XPA23 light chain R31Y (Fab, V domains shown)
VH: B1 VH
VL: B1 VL with T31Y
B4: XPA23 light chain S53N (Fab, V domains shown)
VH: B1 VH
VL: B1 VL with T31R, S53N
B5: XPA23 light chain T52A (Fab, V domains shown)
VH: B1 VH
VL: B1 VL with T31R, T52A
B6: XPA23 light chain S50K (Fab, V domains shown)
VH: B1 VH
VL: B1 VL with T31R, S50K
B7: XPA23 light chain S50Q (Fab, V domains shown)
VH: B1 VH
VL: B1 VL with T31R, S50Q
B8: XPA23 light chain S50P (Fab, V domains shown)
VH: B1 VH
VL: B1 VL with T31R, S50P
B9: XPA23 light chain S93W (Fab, V domains shown)
VH: B1 VH
VL: B1 VL with T31R, S93W
B10: XPA23 light chain R31W (Fab, V domains shown)
VH: B1 VH
VL: B1 VL with T31W
B11: XPA23 light chain S50D (Fab, V domains shown)
VH: B1 VH
VL: B1 VL with T31R, S50D
B12: XPA23 light chain S93R (Fab, V domains shown)
VH: B1 VH
VL: B1 VL with T31R, S93R
B13: XPA23 light chain S93Q (Fab, V domains shown)
VH: B1 VH
VL: B1 VL with T31R, S93Q
B14: XPA23 light chain S50R (Fab, V domains shown)
VH: B1 VH
VL: B1 VL with T31R, S50R
B15: XPA23 light chain T52F (Fab, V domains shown)
VH: B1 VH
VL: B1 VL with T31R, T52F
B16: XPA23 light chain S50V (Fab, V domains shown)
VH: B1 VH
VL: B1 VL with T31R, S50V
B17: XPA23 light chain S93H (Fab, V domains shown)
VH: B1 VH
VL: B1 VL with T31R, S93H
B18: XPA23 light chain S50G (Fab, V domains shown)
VH: B1 VH
VL: B1 VL with T31R, S50G
B19: XPA23 light chain S50A (Fab, V domains shown)
VH: B1 VH
VL: B1 VL with T31R, S50A
B20: XPA23 light chain S50I (Fab, V domains shown)
VH: B1 VH
VL: B1 VL with T31R, S50I
B21: XPA23 light chain S50L (Fab, V domains shown)
VH: B1 VH
VL: B1 VL with T31R, S50L
B22: XPA23 light chain S53Y (Fab, V domains shown)
VH: B1 VH
VL: B1 VL with T31R, S53Y
B23: XPA23 light chain S93D (Fab, V domains shown)
VH: B1 VH
VL: B1 VL with T31R, S93D
B24: XPA23 light chain S93N (Fab, V domains shown)
VH: B1 VH
VL: B1 VL with T31R, S93N
B25: XPA23 light chain S93K (Fab, V domains shown)
VH: B1 VH
VL: B1 VL with T31R, S93K
B26: XPA23 light chain S53K (Fab, V domains shown)
VH: B1 VH
VL: B1 VL with T31R, S53K
B27: XPA23 light chain S53D (Fab, V domains shown)
VH: B1 VH
VL: B1 VL with T31R, S53D
B28: XPA23 light chain T52G (Fab, V domains shown)
VH: B1 VH
VL: B1 VL with T31R, T52G
B29: XPA23 light chain T52E (Fab, V domains shown)
VH: B1 VH
VL: B1 VL with T31R, T52E
B30: XPA23 light chain R31V (Fab, V domains shown)
VH: B1 VH
VL: B1 VL with T31V
B31: XPA23 light chain S50N (Fab, V domains shown)
VH: B1 VH
VL: B1 VL with T31R, S50N
B32: XPA23 light chain S93F (Fab, V domains shown)
VH: B1 VH
VL: B1 VL with T31R, S93F
B33: XPA23 light chain S50W (Fab, V domains shown)
VH: B1 VH
VL: B1 VL with T31R, S50W
B34: XPA23 light chain S53F (Fab, V domains shown)
VH: B1 VH
VL: B1 VL with T31R, S53F
B35: XPA23 light chain S50F (Fab, V domains shown)
VH: B1 VH
VL: B1 VL with T31R, S50F
B36: XPA23 light chain S53Q (Fab, V domains shown)
VH: B1 VH
VL: B1 VL with T31R, S53Q
B37: XPA23 light chain S50Y (Fab, V domains shown)
VH: B1 VH
VL: B1 VL with T31R, S50Y
B38: XPA23 light chain S50E (Fab, V domains shown)
VH: B1 VH
VL: B1 VL with T31R, S50E
B39: XPA23 light chain S53W (Fab, V domains shown)
VH: B1 VH
VL: B1 VL with T31R, S53W
B40: XPA23 light chain S50T (Fab, V domains shown)
VH: B1 VH
VL: B1 VL with T31R, S50T
B41: XPA23 light chain S53R (Fab, V domains shown)
VH: B1 VH
VL: B1 VL with T31R, S53R
B42: XPA23 light chain S93Y (Fab, V domains shown)
VH: B1 VH
VL: B1 VL with T31R, S93Y
B43: XPA23 light chain S53E (Fab, V domains shown)
VH: B1 VH
VL: B1 VL with T31R, S53E
B44: XPA23 light chain S93E (Fab, V domains shown)
VH: B1 VH
VL: B1 VL with T31R, S93E
B45: XPA23 light chain T52D (Fab, V domains shown)
VH: B1 VH
VL: B1 VL with T31R, T52D

Target: T1, IL-1β (UniProt P01584 117-269)
T1 construct: Antigen immobilised on the Biacore chip
Assay: Biacore, periplasmic extract

Binder	fold difference in affinity vs original [fold]	binding result
B1	0.24	
B2	0.05	
B3		no binding
B4	1.23	
B5	0.66	
B6	0.1	
B7	0.21	
B8		no binding
B9	5.49	
B10	0.43	
B11		no binding
B12	0.91	
B13	1.54	
B14		no binding
B15	1.05	
B16	0.21	
B17	1.08	
B18	0.14	
B19	0.13	
B20	0.25	
B21	0.49	
B22	1.23	
B23	4.59	

Binder	fold difference in affinity vs original [fold]	binding result
B24	3.76	
B25	0.86	
B26	4.07	
B27		no binding
B28		no binding
B29	0.61	
B30	0.44	
B31	0.25	
B32	1.32	
B33	0.02	
B34	1.24	
B35		no binding
B36	1.09	
B37	0.05	
B38	0.02	
B39	1.11	
B40	0.87	
B41	3.29	
B42	1.45	
B43	1.13	
B44	3.71	
B45	0.72	
